In PMC5768801, “The PII signaling protein from red algae represents an evolutionary link between cyanobacterial and Chloroplastida PII proteins” (Scientific Reports, 2018):

Substrate: CC(=O)N[C@@H](CCC(=O)O)C(=O)O
Assay: purified protein, by the assay type
Conditions: pH 7.5

B1: ScNAGK (Synechocystis sp. PCC 6803 substr. Kazusa) (protein)
chain: MSSTQDYIGEEAATRVKILSEALPYIQHFAGRTVVVKYGGAAMKDSNLKDKVIRDIVFMASVGIRPVVVHGGGPEINTWLDKVGIEPQFKDGLRVTDAATMDIVEMVLVGRVNKELVNLINQAGGKAVGLCGKDGQLMTARTMTNKDVGFVGEVSSVDARVVETLVKSGYIPVISSVAADEFGQAHNINADTCAGELAAALGAEKLILLTDTRGILRDYKDPSTLIHKLDIQQARELIGSGIVAGGMIPKVTCCVRSLAQGVRAAHILDGRLPHALLLEVFTDLGIGSMIVASGYDL
Work on B1 yielded a Km of 16.23 mM.
